Assay results as given in PMC4842197, “Preclinical in vivo application of ^152Tb-DOTANOC: a radiolanthanide for PET imaging” (EJNMMI Research, 2016).
Bridge positions count the residues as written; N and C are the ends. Square brackets hold non-standard residues; d marks the D form. Peptide text beside a SMILES is read from it. * marks the point of attachment. DOTA = O=C(O)CN1CCN(CC(=O)O)CCN(CC(=O)*)CCN(CC(=O)O)CC1; 1Nal = N[C@@H](Cc1cccc2ccccc12)C(=O)O; Thr(ol) = C[C@@H](O)[C@H](N)CO

Experiments:
in vivo = conditions: female, CD-1 Foxn-1/nu nude, mouse, iv, total radioactivity, Biodistribution
Method: (§1) AR42J tumor cells, a rat exocrine pancreatic tumor cell line which is known to express the somatostatin receptor, were obtained from the European Collection of Cell Cultures (ECACC). The cells were cultured in RPMI 1640 medium, supplemented with 10 % fetal calf serum, L-glutamine, and antibiotics under standard conditions in a humidified atmosphere with 5 % CO2 at 37 °C. Routine culture was performed by trypsinization of the cells twice a week. To inoculate the animals, the cells were detached using trypsin, centrifuged, and resuspended in PBS at a concentration of 5 × 10^6 cells/100 μL.
(§2) In vivo experiments were approved by the local veterinary department and conducted in accordance with the Swiss law of animal protection. Female nude mice (CD-1 Foxn-1/nu) were purchased from Charles River Laboratories (Sulzfeld, Germany). The animals were fed with a standard rodent chow ad libitum (Kliba Nafag, Kaiseraugst, Switzerland).
(§3) About 2 weeks prior to biodistribution and imaging studies, the mice were inoculated with AR42J tumor cells by subcutaneous injection of the cell suspension (5 × 10^6 cells/100 μL) on each shoulder.
(§4) Mice were euthanized at pre-determined time points between 30 min and 22 h after injection of the radioconjugate. […] Selected tissues and organs were collected, weighed, and counted for radioactivity using a γ-counter (Packard Canberra Cobra II, USA). The results were listed as a percentage of the injected activity per gram of tissue mass (% IA/g), using counts of a defined volume of the original injection solution measured at the same time.

AR42J tumor-bearing mice = test: in vivo; conditions: female, CD-1 Foxn-1/nu nude, mouse, iv, 5 nmol per mouse, 5 h
Method: as §1, §2, §3, §4

[1] = 2.5 nmol per mouse (5 MBq), AR42J tumor
[2] = 2.5 nmol per mouse (5 MBq), Blood
[3] = 2.5 nmol per mouse (5 MBq), Bone
[4] = 2.5 nmol per mouse (5 MBq), Brain
[5] = 2.5 nmol per mouse (5 MBq), Heart
[6] = 2.5 nmol per mouse (5 MBq), Lung

C[C@@H](O)[C@@H]1NC(=O)[C@H](CCCCN)NC(=O)[C@@H](Cc2c[nH]c3ccccc23)NC(=O)[C@H](Cc2cccc3ccccc23)NC(=O)[C@@H](NC(=O)[C@@H](Cc2ccccc2)NC(=O)CN2CCN(CC(=O)O)CCN(CC(=O)O)CCN(CC(=O)O)CC2)CSSC[C@@H](C(=O)N[C@H](CO)[C@@H](C)O)NC1=O [^177Lu-DOTANOC, metal not drawn] ({DOTA}-[dF]C[1Nal][dW]KTC[Thr(ol)]; disulfide 2-7) gave a tissue uptake at 5 h (in vivo; 0.5 nmol peptide, Adrenals) of 0.7 ± 0.13 %ID/g, a tissue uptake at 5 h (in vivo; 0.5 nmol peptide, Kidneys) of 6.63 ± 0.1 %ID/g and a tissue uptake at 5 h (in vivo; 0.5 nmol peptide, Lung) of 1.18 ± 0.36 %ID/g. For the same compound, the tissue uptake at 5 h (in vivo; 0.5 nmol peptide, Spleen) was 0.24 ± 0.03 %ID/g, the tissue uptake at 5 h (in vivo; 0.5 nmol per mouse, AR42J Tumor) was 25.3 ± 4.14 %ID/g and the tissue uptake at 5 h (in vivo; 0.5 nmol, Blood) was 0.09 ± 0.01 %ID/g. It also gave a tissue uptake at 5 h (in vivo; 0.5 nmol, Bone) of 0.33 ± 0.08 %ID/g, a tissue uptake at 5 h (in vivo; 0.5 nmol, Brain) of 0.01 %ID/g and a tissue uptake at 5 h (in vivo; 0.5 nmol, Heart) of 0.08 ± 0.01 %ID/g. The tissue uptake at 5 h (in vivo; 0.5 nmol, Liver) was 0.34 ± 0.01 %ID/g, the tissue uptake at 5 h (in vivo; 0.5 nmol, Muscle) was 0.02 ± 0.01 %ID/g and the tissue uptake at 5 h (in vivo; 0.5 nmol, Stomach) was 3.78 ± 0.28 %ID/g. For the same compound, the tissue uptake at 0.5 h (in vivo; [1]) was 9.02 ± 0.33 %ID/g, the tissue uptake at 2 h (in vivo; [1]) was 8.32 ± 0.47 %ID/g and the tissue uptake at 5 h (in vivo; [1]) was 8.45 ± 1.04 %ID/g. The tissue uptake at 16 h (in vivo; [1]) was 5.48 ± 0.98 %ID/g, the tissue uptake at 22 h (in vivo; [1]) was 4.51 ± 0.37 %ID/g and the tissue uptake at 0.5 h (in vivo; [2]) was 2.52 ± 0.65 %ID/g. It also gave a tissue uptake at 2 h (in vivo; [2]) of 0.09 ± 0.01 %ID/g, a tissue uptake at 5 h (in vivo; [2]) of 0.06 ± 0.01 %ID/g and a tissue uptake at 16 h (in vivo; [2]) of 0.07 ± 0.01 %ID/g. The tissue uptake at 22 h (in vivo; [2]) was 0.03 %ID/g, the tissue uptake at 16 h (in vivo; [3]) was 0.12 ± 0.05 %ID/g and the tissue uptake at 22 h (in vivo; [3]) was 0.08 ± 0.01 %ID/g. For the same compound, the tissue uptake at 0.5 h (in vivo; [4]) was 0.06 ± 0.01 %ID/g, the tissue uptake at 2 h (in vivo; [4]) was 0.01 %ID/g and the tissue uptake at 5 h (in vivo; [4]) was 0.02 %ID/g. It also gave a tissue uptake at 16 h (in vivo; [4]) of 0.02 ± 0.01 %ID/g, a tissue uptake at 22 h (in vivo; [4]) of 0.01 %ID/g and a tissue uptake at 0.5 h (in vivo; [5]) of 1.34 ± 0.35 %ID/g. For the same compound, the tissue uptake at 2 h (in vivo; [5]) was 0.08 ± 0.01 %ID/g, the tissue uptake at 5 h (in vivo; [5]) was 0.07 ± 0.01 %ID/g and the tissue uptake at 16 h (in vivo; [5]) was 0.07 ± 0.01 %ID/g. It also gave a tissue uptake at 22 h (in vivo; [5]) of 0.03 %ID/g, a tissue uptake at 0.5 h (in vivo; [6]) of 3.04 ± 0.47 %ID/g and a tissue uptake at 2 h (in vivo; [6]) of 0.45 ± 0.03 %ID/g. The tissue uptake at 5 h (in vivo; [6]) was 0.41 ± 0.04 %ID/g, the tissue uptake at 0.5 h (in vivo; 2.5 nmol per mouse, Adrenals) was 1.38 ± 0.32 %ID/g and the tissue uptake at 2 h (in vivo; 2.5 nmol per mouse, Adrenals) was 0.28 ± 0.14 %ID/g. It also gave a tissue uptake at 16 h (in vivo; 2.5 nmol per mouse, Adrenals) of 0.51 ± 0.4 %ID/g, a tissue uptake at 22 h (in vivo; 2.5 nmol per mouse, Adrenals) of 0.42 ± 0.18 %ID/g and a tissue uptake at 0.5 h (in vivo; 2.5 nmol per mouse, Bone) of 1.13 ± 0.26 %ID/g. The tissue uptake at 2 h (in vivo; 2.5 nmol per mouse, Bone) was 0.17 ± 0.01 %ID/g, the tissue uptake at 5 h (in vivo; 2.5 nmol per mouse, Bone) was 0.12 ± 0.02 %ID/g and the tissue uptake at 0.5 h (in vivo; 2.5 nmol per mouse, Intestines) was 0.94 ± 0.12 %ID/g. For the same compound, the tissue uptake at 2 h (in vivo; 2.5 nmol per mouse, Intestines) was 0.25 ± 0.04 %ID/g, the tissue uptake at 5 h (in vivo; 2.5 nmol per mouse, Intestines) was 0.25 ± 0.03 %ID/g and the tissue uptake at 16 h (in vivo; 2.5 nmol per mouse, Intestines) was 0.16 ± 0.01 %ID/g. The tissue uptake at 0.5 h (in vivo; 2.5 nmol per mouse, Kidneys) was 13 ± 1.85 %ID/g, the tissue uptake at 2 h (in vivo; 2.5 nmol per mouse, Kidneys) was 7.67 ± 0.51 %ID/g and the tissue uptake at 5 h (in vivo; 2.5 nmol per mouse, Kidneys) was 9.1 ± 1.66 %ID/g. The tissue uptake at 16 h (in vivo; 2.5 nmol per mouse, Kidneys) was 6.13 ± 1.63 %ID/g, the tissue uptake at 22 h (in vivo; 2.5 nmol per mouse, Kidneys) was 4.8 ± 0.19 %ID/g and the tissue uptake at 0.5 h (in vivo; 2.5 nmol per mouse, Liver) was 1.43 ± 0.17 %ID/g. For the same compound, the tissue uptake at 2 h (in vivo; 2.5 nmol per mouse, Liver) was 0.52 ± 0.04 %ID/g, the tissue uptake at 5 h (in vivo; 2.5 nmol per mouse, Liver) was 0.53 ± 0.1 %ID/g and the tissue uptake at 16 h (in vivo; 2.5 nmol per mouse, Liver) was 0.27 ± 0.05 %ID/g. It also gave a tissue uptake at 22 h (in vivo; 2.5 nmol per mouse, Liver) of 0.2 ± 0.02 %ID/g, a tissue uptake at 16 h (in vivo; 2.5 nmol per mouse, Lung) of 0.27 ± 0.05 %ID/g and a tissue uptake at 0.5 h (in vivo; 2.5 nmol per mouse, Muscle) of 0.48 ± 0.16 %ID/g. For the same compound, the tissue uptake at 2 h (in vivo; 2.5 nmol per mouse, Muscle) was 0.02 %ID/g, the tissue uptake at 5 h (in vivo; 2.5 nmol per mouse, Muscle) was 0.02 ± 0.01 %ID/g and the tissue uptake at 16 h (in vivo; 2.5 nmol per mouse, Muscle) was 0.03 %ID/g. The tissue uptake at 22 h (in vivo; 2.5 nmol per mouse, Muscle) was 0.01 %ID/g, the tissue uptake at 0.5 h (in vivo; 2.5 nmol per mouse, Pancreas) was 1.99 ± 0.07 %ID/g and the tissue uptake at 2 h (in vivo; 2.5 nmol per mouse, Pancreas) was 1.09 ± 0.17 %ID/g. The tissue uptake at 5 h (in vivo; 2.5 nmol per mouse, Pancreas) was 0.88 ± 0.11 %ID/g, the tissue uptake at 16 h (in vivo; 2.5 nmol per mouse, Pancreas) was 0.34 ± 0.05 %ID/g and the tissue uptake at 22 h (in vivo; 2.5 nmol per mouse, Pancreas) was 0.25 ± 0.03 %ID/g. The tissue uptake at 0.5 h (in vivo; 2.5 nmol per mouse, Spleen) was 0.77 ± 0.03 %ID/g, the tissue uptake at 5 h (in vivo; 2.5 nmol per mouse, Spleen) was 0.18 ± 0.02 %ID/g and the tissue uptake at 22 h (in vivo; 2.5 nmol per mouse, Spleen) was 0.09 ± 0.01 %ID/g. The tissue uptake at 0.5 h (in vivo; 2.5 nmol per mouse, Stomach) was 1.95 ± 0.23 %ID/g, the tissue uptake at 2 h (in vivo; 2.5 nmol per mouse, Stomach) was 1.14 ± 0.04 %ID/g and the tissue uptake at 5 h (in vivo; 2.5 nmol per mouse, Stomach) was 1.21 ± 0.55 %ID/g. For the same compound, the tissue uptake at 16 h (in vivo; 2.5 nmol per mouse, Stomach) was 0.68 ± 0.09 %ID/g, the tissue uptake at 22 h (in vivo; 2.5 nmol per mouse, Stomach) was 0.6 ± 0.22 %ID/g and the tissue uptake at 5 h (in vivo; 5 nmol peptide, Adrenals) was 0.18 ± 0.05 %ID/g. The tissue uptake at 5 h (in vivo; 5 nmol peptide, Kidneys) was 7 ± 0.69 %ID/g, the tissue uptake at 5 h (in vivo; 5 nmol peptide, Lung) was 0.28 ± 0.01 %ID/g and the tissue uptake at 5 h (in vivo; 5 nmol peptide, Spleen) was 0.11 ± 0.02 %ID/g. The tissue uptake at 5 h (in vivo; 5 nmol per mouse, AR42J Tumor) was 3.82 ± 0.2 %ID/g, the tissue uptake at 5 h (in vivo; 5 nmol, Blood) was 0.06 ± 0.01 %ID/g and the tissue uptake at 5 h (in vivo; 5 nmol, Bone) was 0.09 ± 0.02 %ID/g. The tissue uptake at 5 h (in vivo; 5 nmol, Brain) was 0.01 %ID/g, the tissue uptake at 5 h (in vivo; 5 nmol, Heart) was 0.06 %ID/g and the tissue uptake at 5 h (in vivo; 5 nmol, Intestines) was 0.14 ± 0.01 %ID/g. It also gave a tissue uptake at 5 h (in vivo; 5 nmol, Liver) of 0.36 ± 0.04 %ID/g, a tissue uptake at 5 h (in vivo; 5 nmol, Muscle) of 0.02 %ID/g and a tissue uptake at 5 h (in vivo; 5 nmol, Pancreas) of 0.41 ± 0.01 %ID/g. The tissue uptake at 5 h (in vivo; 5 nmol, Stomach) was 0.41 ± 0.05 %ID/g and the “Biodistribution, AR42J Tumor” value (AR42J tumor-bearing mice) was ~ 4 % IA/g.
